T1: hOX40-FC (human, UniProt P43489 29-216)
T1 construct: range 1-216; Made in HEK293; The stated range 1-216 starts at residue 1, so it holds the signal peptide of the entry; also called human OX40 extracellular region fused to human IgG1-Fc; not shown: human IgG1-Fc, UniProt P01857, residues 104 to 330
T1 sequence (looked up): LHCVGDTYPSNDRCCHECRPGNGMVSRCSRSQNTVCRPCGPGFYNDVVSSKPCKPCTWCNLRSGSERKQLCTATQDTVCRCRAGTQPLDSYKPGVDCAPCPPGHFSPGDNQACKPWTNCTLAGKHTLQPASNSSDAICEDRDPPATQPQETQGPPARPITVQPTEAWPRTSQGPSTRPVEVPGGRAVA


The binders below were run against T1, hOX40-FC (assay: BLI (ForteBio), biotinylated antibody on SA sensor, OX40-Fc 50 nM bivalent, 1:1 model).
Description: The ForteBio affinity assay was conducted according to the existing conventional method (Estep, P et al., MAbs, 2013, 5(2): 270-8). The brief process is as follows: the sensor was equilibrated offline in an assay buffer (such as PBS) for 20 min and then subjected to online test for 60 s to establish a signal baseline. The purified antibodies obtained as described above were each loaded online onto a corresponding sensor (ForteBio), and finally the ForteBio affinity assay was conducted. The biotinylated candidate antibodies were adsorbed with the SA sensor, and binding and dissociation of hOX40-FC were each detected for about 5 min. The results are shown in Table 4, and N.D indicates not detected in Table 4. Finally, kinetic analysis was performed for all by using a 1:1 binding model.

| Kd | Binder |
| --- | --- |
| 2 nM | Antibody-F23-7k (antibody, human IgG1, kappa, V domains shown, also called antibody No. 5) VH: QVQLEESGGGVVQPGESLRLSCAASGFTFSSYGMHWVRQAPGKGLEWVAVISYDGSNQYYADSVKGRFTISRDNSKNTLYLQMNSLRAEDTAVYYCAKDNQDSSPDVGIDYWGQGTLVTVSS VL: DIQMTQSPSSLSASVGDRVTITCRASQSISSYLNWYQQKPGKAPKLLMYAASSLQSGVPSRFSGSGSGTDFTLTISSLQPEDFATYYCLQIDSYPLTFGGGTKVEIKR |
| 3 nM | Antibody-F15-1L (antibody, human IgG1, kappa, V domains shown, also called Antibody-F15-IL; antibody No. 3) VH: QVQLRESGGGLVQPGGSLRLSCAASGFTFSSYAMNWVRQAPGKGLEWVSAISGSGGNTYYADSVKGRLTISRDNSKNTLYLQMNSLRAEDTAVYYCAKDPLGSSWFEYFQHWGQGTLVTVSS VL: QSALTQPASVSGSPGQSITISCTGTSSDVGGYNYVSWYQKHPGKAPKLMIYEVSNRPSGVSNRFSGSKSANTASLTISGLQAEDEADYFCSSYSSSSTLVVFGGGTKLTVLR |
| 3 nM | Antibody-FE-16H (antibody, human IgG1, kappa, V domains shown, also called antibody No. 10) VH: QVQLVESGGGLVQPGGSLRLSCAASGFTFSSYAMSWVRQAPGKGLEWVSAISGSGGSTYYADSVKGRFTISRDNSKNSLYLQMNSLRAEDTAVYYCARGDSSSWFIFQDWGQGTLVTVSS VL: not shown |
| 9 nM | Antibody-A2 (antibody, human IgG1, kappa, V domains shown, also called antibody No. 11) VH: QVQLVESGGGLIQPGGSLRLSCAASGFTVSSNYMSWVRQAPGEGLEWIATIYYGGSTYYNPSLKSRVTISADMSKNQFSLKLSSMTAADTAVYYCARVVVPGYFDLWGRGTLVTVSS VL: SSELTQDPAVSVALGQTVSITCQGDSLRSYYASWYQQKPGQAPVPVIYGKNNRPSGIPDRFSGSSSGNTASLTITGAQAEDEADYYCHSRDSSGKYVFGVGTKLTVLR |
| 4 nM | Antibody-A6-1k (antibody, human IgG1, kappa, V domains shown, also called Antibody-A6-lk; antibody No. 7) VH: QVQLQRSGGGLVQPGGSLRLSCAASGFTFSSYGMTWVRQAPGKGLEWVSAISNSGGSTYYADSVKGRFTISRDNSKNTLYLQMNSLRAEDTAVYYCAKDGPYFDYWGQGTLVTVSS VL: DIQMTQSPSTLSASVGDRVTITCRVSQGIGDDLGWYQQKPGKAPKLLIYKASNLESGVPSRFSGSGSGTDFSLTISSLQPEDFATYFCQQAHSFPPTFGGGTKLEIKR |
| < 0.1 nM | Antibody-X35-6L (antibody, human IgG1, kappa, V domains shown, also called antibody No. 2) VH: EVQLVESGGGLVQPGRSLRLSCAASGFTFDDYAMHWVRQAPGRGLEWVSGIGGSGGSTYYADSVKGRFTISRDNSKNTLYLQMNGLGAEDTAVYYCAKDRGYGDYYWYFDLWGRGTLVTVSS VL: SSELTQPASVSGSPGQSITISCTGTSSDVGGYNYVSWYQQHPGKAPKLMIYDVSNRPSGVSNRFSGSKSGNTASLTISGLQAEDEADYYCSSYTTSSTLVFGGGTKVTVLR |
| 2 nM | Antibody-M5-5k (antibody, human IgG1, kappa, V domains shown, also called antibody No. 8) VH: QVQLVESGGGLIQPGGSLRLSCTASGFTFSTYAMSWVRQAPGKGLEWVSAISGTGDWASYADSVKGRFTTSRDNSRNTLYLQMNNLRDEDTAIYYCAKSSSTVATDFDYGMDVWGQGTLVTVSS VL: ETTLTQSPSTLSASVGDRVTITCRASEEIGSWLAWYQQTPGKAPKRLIYEASSLQSGVPSRFSGSGSGTDFTLTISSLQPEDFATYYCQQYGSYPPTFGQGTKVEIKR |
| 0.4 nM | Antibody-M5-7k (antibody, human IgG1, kappa, V domains shown, also called antibody No. 9) VH: QVQLVESGGGLIQPGGSLRLSCTASGFTFSTYAMSWVRQAPGKGLEWVSAISGTGDWASYADSVKGRFTTSRDNSRNTLYLQMNNLRDEDTAIYYCAKSSSTVATDFDYGMDVWGQGTLVTVSS VL: DIVMTQSPSTLSASVGDRVTVTCRASEDIGRWLAWYQQKPGKAPKRLIYAASSLQSGVPSRFSGSGSGTEFTLTISSLQPEDFATYYCQQYYNYPPTFGQGTKVEIKR |
